Measurements as given in patent US20160068860A1, “TRANSGENIC PLANTS” (CONSEJO SUPERIOR DE INVESTIGACIONES CIENTIFICAS (CSIC), priority 2013, published 2016).
Residue numbers refer to the chain shown, from its start. Numbers in names are those of the source.

B1: PYL4H82R V97A (AtPYL H82 and V97A) (receptor)
chain: MLAVHRPSSAVSDGDSVQIPMMIASFQKRFPSLSRDSTAARFHTHEVGPNQCCSAVIQEISAPISTVWSVVRRFDNPQAYKRFLKSCSVIGGDGDNAGSLRQVHVVSGLPAASSTERLDILDDERHVISFSVVGGDHRLSNYRSVTTLHPSPISGTVVVESYVVDVPPGNTKEETCDFVDVIVRCNLQSLAKIAENTAAESKKKMSL
notes: also called PYL4H82R (found combined with V97A)
B2: PYL4A194T: AtPYL4 ABA receptor mutant polypeptide with A194T substitution (SEQ ID NO. 60; nucleic acid SEQ ID NO: 55); also over-expressed in plants (protein, listed as Arabidopsis thaliana)
chain: B1 chain with R82H, A97V, A194T

Tests used:
[1] = test system: Arabidopsis thaliana plants; experiment: Drought stress under greenhouse conditions; type: in vivo; details: for survival after drought stress: OE lines, watering resumed at 19-d, scored at 23-d
Method: Plants grown under greenhouse conditions (10 individuals per experiment, three independent experiments) were grown under normal watering conditions for 15 days and then subjected to drought stress by stopping irrigation during 20 days. Next, watering was resumed and survival rate was calculated after 3 days by counting the percentage of plants that had more than four green leaves. Photographs were taken at the start of the experiment (day 0), after 16 and 19 days of drought, and 3 days after rewatering. Shoot-growth and water-loss were measured as follows. Quantification of shoot-growth was performed at 2, 5, 7 and 9 d after stopping irrigation (day 0) by measuring the maximum rosette radius of the plants. Water-loss measurements were done in two leaves from each plant that were detached 11 d after the start of the experiment, next weighted, incubated in de-mineralized water for 3 h and weighed again. The difference in weight was considered as water loss and related to the initial fresh weight (μl H2O/g FW).

6His-ΔNPP2CA = experiment: Binding assay with 6His-ΔNPP2CA (Ni-affinity co-purification, size exclusion, pull-down); design: species or system Arabidopsis; details: for pull-down interaction with PP2CA: absence or presence of 100 μM ABA
Method: For small scale protein purifications, E. coli BL21 (DE3) cells transformed with the corresponding constructs were grown in 100 ml of LB medium to an OD600 of 0.6-0.8. At this point 1 mM isopropyl-β-D-thiogalactoside (IPTG) was added and the cells were harvested after overnight incubation at 20° C. Pellets were resuspended in lysis buffer (50 mM Tris pH 7.5, 250 mM KCl, 10% Glycerol, 1 mM β-mercaptoethanol) and lysed by sonication with a Branson Sonifier 250. The clear lysate obained after centrifugation was purified by Ni-affinity. A washing step was performed using 50 mM Tris, 250 mM KCl, 20% Glycerol, 30 mM imidazole and 1 mM […] washing buffer, and finally the protein was eluted using 50 mM Tris, 250 mM KCl, 20% Glycerol, 250 mM imidazole and 1 mM […] elution buffer For protein-protein interaction experiments, the pET28a_ΔNPP2CA, pETM11_PYL4 wt and pETM11_PYL4A194T plasmids were transformed into E. coli BL21 (DE3). A total of 8 ml of an overnight culture were sub-cultured into 800 ml fresh 2TY broth (16 g Bacto tryptone, 10 g yeast extract, 5 g NaCl per litre of solution) plus kanamycin (50 μg ml-1). Protein expression was induced with 0.3 mM IPTG and the cells were harvested after overnight incubation at 20° C. Pellets were resuspended in 25 mM TrisHCl pH 8.0, 50 mM NaCl, 50 mM imidazole, 5 mM […] and disrupted by sonication. After centrifugation (40 min, 40000 g) at 277 K, the clear supernatant was filtered (pore diameter […]; Millipore Corporation, Bedford, Mass., USA). The 6His-tagged proteins were purified using Ni-NTA Agarose (Qiagen) according to the manufacturer's instructions. The filtered supernatant was mixed with the previously equilibrated beads. After incubation, a washing step with ten volumes of 25 mM TrisHCl pH 8.0, 50 mM NaCl, 20 mM imidazole, 5 mM […] buffer was performed followed by the elution from the Ni2+ resin in a buffer with 500 mM imidazole. Imidazole was removed using a PD-10 column (GE Healthcare) and the His-tag was cleaved using TEV protease.
6His-ΔNPP2CA pellets were resuspended in 25 mM TrisHCl pH 8.0, 150 mM NaCl, 50 mM imidazole, 5 mM 3-mercaptoethanol, 5 mM Mg2+, mixed with 8 mg of either pure non-tagged (through TEV cleavage) PYL4 or PYL4A194T and disrupted by sonication. The crude extracts were treated as described above using His-Trap HP columns from GE Healthcare to the capture step according to the manufacturer's instructions. In all cases, the purified proteins were subjected to a size exclusion chromatography using a Superdex200 10/300 (Amersham Biosciences Limited, UK) to analyze the behavior in a gel filtration of each protein and to isolate the complex. […] After three washes, proteins were eluted by adding 500 mM imidazol and analyzed by SDS-PAGE.

[2] = test system: Barley plants (cv. Golden Promise); type: in vivo, Hordeum vulgare; details: for vegetative growth under non-stress conditions: in vivo; for drought tolerance compared to non-transformed Golden promise wt plants / fresh weight/leaf after drought / survival and vegetative growth after drought and rewatering / weight/plant after drought and rewatering: transgenic barley; for drought tolerance compared to non-transformed Golden promise wt plants: 12-d period of drought; for fresh weight/leaf after drought / survival and vegetative growth after drought and rewatering / weight/plant after drought and rewatering: compared to non-transformed plants
Excerpt: Transgenic barley (cv. Golden Promise) expressing either Arabidopsis PYL4^A194T or PYL4^H82R V97A open reading frame driven by the Ubiquitin promoter from the pBract214 vector was generated via Agrobacterium-mediated transformation (Bartlett et al. 2008).
The nucleotide sequence encoding either PYL4^A194T or PYL4^H82R V97A open reading frame was recombined by LR reaction from pCR8/GW/TOPO entry vector into the Gateway compatible pBract214 destination vector. The sequence introduced in barley is the Arabidopsis open reading frame carrying the indicated mutations. Also, the second codon (of the sequence as shown in SEQ ID NO; 2) was modified to GTT to get a Ncol site to facilitate cloning).
Immature embryos were inoculated with Agrobacterium strain AGL1 containing the over-expression vector pBract214 into which the genes of interest had been cloned. pBract214 also contains the hygromycin resistance gene to allow selection of transgenic tissues and plants. Following co-cultivation for 3 days, immature embryos were transferred to selective callus induction medium containing hygromycin to allow the selection of transformed tissue and timentin to remove Agrobacterium. After a total of 6 weeks callus induction, callus were moved to a transition medium in low light and then 2 weeks later to regeneration medium under full light. Regenerated plants were transferred to rooting tubes when shoots reached 2-3 cm in length. Plants with strong roots in hygromycin containing medium were then established in soil and grown to maturity under controlled environment conditions in order to obtain T1 seed progeny.
Barley plants (cv. Golden Promise) were routinely grown under greenhouse conditions (40-50% relative humidity, 23-24° C.) in pots containing a 1:3 vermiculite-soil mixture. Pots were grouped in trays where water was maintained approximately 0.2-1 cm above the bottom of the tray. For drought (D) stress experiments, four-week-old plants were watered with tap water for 12-d (minus D, water maintained 0.2-1 cm above the bottom of the tray) or were submitted to drought for 12-d (plus D, water withdrawal). One flag leaf per plant (10 individual plants for each genetic background, minus and plus D treatment) was weighed in order to obtain its fresh weight and dried for 16 h at 70° C. and weighed again to obtain its dry weight. After the 12 day drought period, plants that had been submitted to drought were re-watered (RW, water 1 cm above the bottom of the tray for 2-d, then water withdrawal) and weight per plant (destructive measurement to obtain above ground biomass) was obtained after 5-d (plus D, plus RW). The results obtained are described in FIGS. 9, 10 and 11.

Row | Molecule | survival after drought stress [1] | pull-down interaction with PP2CA (6His-ΔNPP2CA) | vegetative growth under non-stress conditions [2] | drought tolerance compared to non-transformed Golden promise wt plants [2] | fresh weight/leaf after drought [2] | survival and vegetative growth after drought and rewatering [2] | weight/plant after drought and rewatering [2] | plant growth (rosette radius) during drought ([1]; OE plants, subsequent 5-d after irrigation stopped) | co-purification with 6His-ΔNPP2CA by Ni-affinity chromatography (6His-ΔNPP2CA; absence of ABA) | complex with 6His-ΔNPP2CA by size exclusion chromatography (6His-ΔNPP2CA; absence of ABA)
1 | PYL4: AtPYL4 wild type ABA receptor polypeptide (SEQ ID NO:3, At2g38310) [reference compound] | around 30% | dependent on the addition of ABA | – | – | – | – | – | – | – | –
2 | B1 | – | – | did not impair vegetative growth | enhanced drought tolerance | higher fresh weight/leaf | enhanced survival and vegetative growth | higher weight/plant | – | – | –
3 | B2 | 60-70% | ABA-independent binding | did not impair vegetative growth | enhanced drought tolerance | higher fresh weight/leaf | enhanced survival and vegetative growth | higher weight/plant | plant growth was reduced in non-transformed Col and PYL4 OE plants compared to PYL4A194T OE plants | could be co-purified | 1:1 complex
